Data published in paper PMC11272584 (Nature Metabolism, 2024).

Columns and labels:
GIPR I299V = target: T1, GIPR I299V (Homo sapiens, UniProt P48546, I299V); test: cAMP accumulation; format: cell-based
T1 construct: host or cells: HEK293
T1 sequence (P48546 22-466 I299V): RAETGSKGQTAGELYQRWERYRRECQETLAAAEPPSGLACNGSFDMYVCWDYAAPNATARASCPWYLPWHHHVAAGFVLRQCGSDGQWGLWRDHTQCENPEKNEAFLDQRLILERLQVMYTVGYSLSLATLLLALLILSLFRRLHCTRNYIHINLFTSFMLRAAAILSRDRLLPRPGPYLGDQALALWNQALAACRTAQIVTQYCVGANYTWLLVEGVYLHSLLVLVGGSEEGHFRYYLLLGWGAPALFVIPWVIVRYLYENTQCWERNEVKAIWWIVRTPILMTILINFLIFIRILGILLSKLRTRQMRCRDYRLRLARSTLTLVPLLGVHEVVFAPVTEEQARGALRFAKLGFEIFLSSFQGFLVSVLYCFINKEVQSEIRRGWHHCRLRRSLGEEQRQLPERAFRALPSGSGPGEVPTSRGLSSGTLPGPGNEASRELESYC
Description: (§1) HEK293 (CRL-1573, American Type Culture Collection) and β-arrestin 1/2 knockout cells, generated from HEK293A[48], were used for cAMP measurement, homologues competition binding and β-arrestin 2 recruitment. […] Both cell lines were cultured at 5% CO2 at 37 °C in Roswell Park Memorial Institute GlutaMAX-I supplemented with 10% fetal bovine serum, 180 units ml^−1 penicillin, and 45 g ml^−1 streptomycin. For the cAMP and binding experiments, cells were transfected with the calcium phosphate precipitation method[49].
(§2) cAMP production was measured with the DiscoverX Hithunter cAMP assay according to the manufacturer’s protocol (DiscoverX). […] On the day of the assay, the cells were washed twice with HEPES-buffered saline (HBS) and incubated with HBS and 1 mM 3-isobutyl-1-methylxanthine for 30 min at 37 °C. […] After the incubation, the assay medium was removed from the plate and the cells were washed with 30 µl PBS and treated with 40 µl enzyme donor–lysis buffer–chemiluminescent reagents and 10 µl cAMP antibodies for 60 min before 40 µl enzyme acceptor solution added. After a 3-h incubation on a shaking table in the dark, the cAMP accumulation was measured based on luminescence with a Perkin Elmer EnVision 2104 Multilabel Microplate Reader. […]

GIPR variants (groups) [1] = test: β-arrestin 2 recruitment (BRET); settings: for In vitro groups (β-arrestin): arr part of the in vitro group; for Beta, Barr: in vitro β-arrestin recruitment per GIPR variant;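 for all read-outs here: BRET readout of β-arrestin 2 recruitment in transiently transfected HEK293 cells expressing WT GIPR or a GIPR variant plus GPCR kinase 2, Rluc8 donor and citrine acceptor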
GIPR variants (groups) [2] = test: cAMP accumulation; format: cell-based, human; settings: for In vitro groups (cAMP): cAMP part of the in vitro group; for percentage_camp: cAMP production compared with WT; for Beta, cAMP: in vitro cAMP production per GIPR variant
GIPR R300W = target: T2, GIPR R300W (Homo sapiens, UniProt P48546, R300W); test: cAMP accumulation; format: cell-based
T2 construct: host or cells: HEK293
T2 sequence (P48546 22-466 R300W): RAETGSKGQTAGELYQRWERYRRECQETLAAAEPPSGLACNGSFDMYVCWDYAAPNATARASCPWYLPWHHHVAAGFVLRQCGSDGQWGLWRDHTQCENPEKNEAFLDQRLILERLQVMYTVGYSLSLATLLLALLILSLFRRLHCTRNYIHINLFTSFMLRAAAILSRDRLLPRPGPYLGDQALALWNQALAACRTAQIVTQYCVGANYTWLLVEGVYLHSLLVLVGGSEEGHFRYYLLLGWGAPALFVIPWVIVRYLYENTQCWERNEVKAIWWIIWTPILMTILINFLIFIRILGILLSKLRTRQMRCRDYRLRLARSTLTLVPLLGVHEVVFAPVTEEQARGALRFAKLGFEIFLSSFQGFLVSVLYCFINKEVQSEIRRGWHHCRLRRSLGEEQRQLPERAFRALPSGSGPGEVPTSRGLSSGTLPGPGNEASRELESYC
Description: as §1, §2

GIPR R336P = target: T3, GIPR R336P (Homo sapiens, UniProt P48546, R336P); test: cAMP accumulation; format: cell-based
T3 construct: host or cells: HEK293
T3 sequence (P48546 22-466 R336P): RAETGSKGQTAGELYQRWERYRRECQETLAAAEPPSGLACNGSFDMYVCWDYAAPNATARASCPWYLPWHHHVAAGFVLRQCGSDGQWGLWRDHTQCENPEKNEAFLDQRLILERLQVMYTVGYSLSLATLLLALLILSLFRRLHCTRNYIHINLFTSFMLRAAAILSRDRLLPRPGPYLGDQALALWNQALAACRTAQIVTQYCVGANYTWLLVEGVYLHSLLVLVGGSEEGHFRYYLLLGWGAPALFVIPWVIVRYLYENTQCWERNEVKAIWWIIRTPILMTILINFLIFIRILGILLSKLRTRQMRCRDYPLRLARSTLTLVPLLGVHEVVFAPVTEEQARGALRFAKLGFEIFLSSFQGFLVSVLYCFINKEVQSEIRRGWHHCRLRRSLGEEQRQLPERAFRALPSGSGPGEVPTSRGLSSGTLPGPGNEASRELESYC
Description: as §1, §2

GIPR L304R = target: T4, GIPR L304R (Homo sapiens, UniProt P48546, L304R); test: cAMP accumulation; format: cell-based
T4 construct: host or cells: HEK293
T4 sequence (P48546 22-466 L304R): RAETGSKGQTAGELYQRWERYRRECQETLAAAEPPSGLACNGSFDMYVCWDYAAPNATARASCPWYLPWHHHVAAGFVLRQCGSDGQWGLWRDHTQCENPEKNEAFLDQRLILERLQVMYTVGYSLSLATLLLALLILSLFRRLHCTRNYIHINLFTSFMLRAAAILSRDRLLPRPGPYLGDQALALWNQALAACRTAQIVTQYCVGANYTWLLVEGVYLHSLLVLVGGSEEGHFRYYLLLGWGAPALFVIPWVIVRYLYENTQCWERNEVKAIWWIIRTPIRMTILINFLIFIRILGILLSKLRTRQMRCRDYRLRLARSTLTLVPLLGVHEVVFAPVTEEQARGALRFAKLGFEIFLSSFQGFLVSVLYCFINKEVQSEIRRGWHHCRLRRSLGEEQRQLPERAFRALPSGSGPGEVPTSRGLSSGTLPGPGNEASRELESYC
Description: as §1, §2

GIPR E354Q = target: T5, GIPR E354Q (Homo sapiens, UniProt P48546, E354Q); test: cAMP accumulation; format: cell-based
T5 construct: host or cells: HEK293
T5 sequence (P48546 22-466 E354Q): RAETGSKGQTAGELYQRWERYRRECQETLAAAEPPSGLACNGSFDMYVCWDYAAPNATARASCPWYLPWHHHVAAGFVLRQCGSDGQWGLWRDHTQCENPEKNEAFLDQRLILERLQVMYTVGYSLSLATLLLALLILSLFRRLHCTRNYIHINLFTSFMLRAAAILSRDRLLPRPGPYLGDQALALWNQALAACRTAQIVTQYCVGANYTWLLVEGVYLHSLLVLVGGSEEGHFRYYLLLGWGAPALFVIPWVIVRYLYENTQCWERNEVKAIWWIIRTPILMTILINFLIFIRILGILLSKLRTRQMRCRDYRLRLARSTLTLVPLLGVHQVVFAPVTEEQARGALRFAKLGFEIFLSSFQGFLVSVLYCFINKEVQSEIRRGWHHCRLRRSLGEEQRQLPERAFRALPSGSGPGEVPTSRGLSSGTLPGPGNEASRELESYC
Description: as §1, §2

B1: I299V (protein)
chain: RAETGSKGQTAGELYQRWERYRRECQETLAAAEPPSGLACNGSFDMYVCWDYAAPNATARASCPWYLPWHHHVAAGFVLRQCGSDGQWGLWRDHTQCENPEKNEAFLDQRLILERLQVMYTVGYSLSLATLLLALLILSLFRRLHCTRNYIHINLFTSFMLRAAAILSRDRLLPRPGPYLGDQALALWNQALAACRTAQIVTQYCVGANYTWLLVEGVYLHSLLVLVGGSEEGHFRYYLLLGWGAPALFVIPWVIVRYLYENTQCWERNEVKAIWWIVRTPILMTILINFLIFIRILGILLSKLRTRQMRCRDYRLRLARSTLTLVPLLGVHEVVFAPVTEEQARGALRFAKLGFEIFLSSFQGFLVSVLYCFINKEVQSEIRRGWHHCRLRRSLGEEQRQLPERAFRALPSGSGPGEVPTSRGLSSGTLPGPGNEASRELESYC
Efficacy at 100pmol (cAMP) (GIPR I299V): 1.005
In vitro groups (β-arrestin) (GIPR variants (groups) [1]): WT-like_arr
Beta, Barr (GIPR variants (groups) [1]): 0.7578
In vitro groups (cAMP) (GIPR variants (groups) [2]): WT-like_camp
percentage_camp (GIPR variants (groups) [2]): >50% cAMP
Beta, cAMP (GIPR variants (groups) [2]): 1.005

B2: R300W (protein)
chain: RAETGSKGQTAGELYQRWERYRRECQETLAAAEPPSGLACNGSFDMYVCWDYAAPNATARASCPWYLPWHHHVAAGFVLRQCGSDGQWGLWRDHTQCENPEKNEAFLDQRLILERLQVMYTVGYSLSLATLLLALLILSLFRRLHCTRNYIHINLFTSFMLRAAAILSRDRLLPRPGPYLGDQALALWNQALAACRTAQIVTQYCVGANYTWLLVEGVYLHSLLVLVGGSEEGHFRYYLLLGWGAPALFVIPWVIVRYLYENTQCWERNEVKAIWWIIWTPILMTILINFLIFIRILGILLSKLRTRQMRCRDYRLRLARSTLTLVPLLGVHEVVFAPVTEEQARGALRFAKLGFEIFLSSFQGFLVSVLYCFINKEVQSEIRRGWHHCRLRRSLGEEQRQLPERAFRALPSGSGPGEVPTSRGLSSGTLPGPGNEASRELESYC
Efficacy at 100pmol (cAMP) (GIPR R300W): 0.0005276
In vitro groups (β-arrestin) (GIPR variants (groups) [1]): LoF_arr
Beta, Barr (GIPR variants (groups) [1]): 0
In vitro groups (cAMP) (GIPR variants (groups) [2]): LoF_camp
percentage_camp (GIPR variants (groups) [2]): <50% cAMP
Beta, cAMP (GIPR variants (groups) [2]): 0

B3: R336P (protein)
chain: RAETGSKGQTAGELYQRWERYRRECQETLAAAEPPSGLACNGSFDMYVCWDYAAPNATARASCPWYLPWHHHVAAGFVLRQCGSDGQWGLWRDHTQCENPEKNEAFLDQRLILERLQVMYTVGYSLSLATLLLALLILSLFRRLHCTRNYIHINLFTSFMLRAAAILSRDRLLPRPGPYLGDQALALWNQALAACRTAQIVTQYCVGANYTWLLVEGVYLHSLLVLVGGSEEGHFRYYLLLGWGAPALFVIPWVIVRYLYENTQCWERNEVKAIWWIIRTPILMTILINFLIFIRILGILLSKLRTRQMRCRDYPLRLARSTLTLVPLLGVHEVVFAPVTEEQARGALRFAKLGFEIFLSSFQGFLVSVLYCFINKEVQSEIRRGWHHCRLRRSLGEEQRQLPERAFRALPSGSGPGEVPTSRGLSSGTLPGPGNEASRELESYC
In vitro groups (β-arrestin) (GIPR variants (groups) [1]): LoF_arr
Beta, Barr (GIPR variants (groups) [1]): 0.2102
In vitro groups (cAMP) (GIPR variants (groups) [2]): LoF_camp
percentage_camp (GIPR variants (groups) [2]): <50% cAMP
Beta, cAMP (GIPR variants (groups) [2]): 0.3193
Efficacy at 100pmol (cAMP) (GIPR R336P): 0.3193

B4: L304R (protein)
chain: RAETGSKGQTAGELYQRWERYRRECQETLAAAEPPSGLACNGSFDMYVCWDYAAPNATARASCPWYLPWHHHVAAGFVLRQCGSDGQWGLWRDHTQCENPEKNEAFLDQRLILERLQVMYTVGYSLSLATLLLALLILSLFRRLHCTRNYIHINLFTSFMLRAAAILSRDRLLPRPGPYLGDQALALWNQALAACRTAQIVTQYCVGANYTWLLVEGVYLHSLLVLVGGSEEGHFRYYLLLGWGAPALFVIPWVIVRYLYENTQCWERNEVKAIWWIIRTPIRMTILINFLIFIRILGILLSKLRTRQMRCRDYRLRLARSTLTLVPLLGVHEVVFAPVTEEQARGALRFAKLGFEIFLSSFQGFLVSVLYCFINKEVQSEIRRGWHHCRLRRSLGEEQRQLPERAFRALPSGSGPGEVPTSRGLSSGTLPGPGNEASRELESYC
Efficacy at 100pmol (cAMP) (GIPR L304R): 0.2373
In vitro groups (β-arrestin) (GIPR variants (groups) [1]): LoF_arr
Beta, Barr (GIPR variants (groups) [1]): 0.1329
In vitro groups (cAMP) (GIPR variants (groups) [2]): LoF_camp
percentage_camp (GIPR variants (groups) [2]): <50% cAMP
Beta, cAMP (GIPR variants (groups) [2]): 0.2373

B5: E354Q (protein)
chain: RAETGSKGQTAGELYQRWERYRRECQETLAAAEPPSGLACNGSFDMYVCWDYAAPNATARASCPWYLPWHHHVAAGFVLRQCGSDGQWGLWRDHTQCENPEKNEAFLDQRLILERLQVMYTVGYSLSLATLLLALLILSLFRRLHCTRNYIHINLFTSFMLRAAAILSRDRLLPRPGPYLGDQALALWNQALAACRTAQIVTQYCVGANYTWLLVEGVYLHSLLVLVGGSEEGHFRYYLLLGWGAPALFVIPWVIVRYLYENTQCWERNEVKAIWWIIRTPILMTILINFLIFIRILGILLSKLRTRQMRCRDYRLRLARSTLTLVPLLGVHQVVFAPVTEEQARGALRFAKLGFEIFLSSFQGFLVSVLYCFINKEVQSEIRRGWHHCRLRRSLGEEQRQLPERAFRALPSGSGPGEVPTSRGLSSGTLPGPGNEASRELESYC
In vitro groups (β-arrestin) (GIPR variants (groups) [1]): WT-like_arr
Beta, Barr (GIPR variants (groups) [1]): 0.9822
Efficacy at 100pmol (cAMP) (GIPR E354Q): 1.125
In vitro groups (cAMP) (GIPR variants (groups) [2]): WT-like_camp
percentage_camp (GIPR variants (groups) [2]): >50% cAMP
Beta, cAMP (GIPR variants (groups) [2]): 1.125
